Measurements taken from patent US20240285785A1, “TARGETING SORTILIN” (priority 2022, published 2024).

How the values were obtained:
[1] = Maximum tolerated dose (MTD) study; format: in vivo, BALB/c Nude mice; details: for body weight loss: after 48 hrs
Experimental: BALB/c Nude mice, female, 6-8 weeks, weighing approximately 18-22 g were purchased from the Shanghai SLAC Laboratory Animal Co., LTD. MTD studies were conducted at WuXi AppTec and the care and use of animals was conducted in accordance with the regulations of the Association for Assessment and Accreditation of Laboratory Animal Care (AAALAC). Two MTD studies were performed (a) a low dose study with doses ranging from 0.1, 0.5, 1 and 3 mg/kg and (b) a high dose study with doses ranging from 3, 5, 10 mg/kg. Dosing volume was determined based on body weight (10 ul/g) and PDCs were dissolved in 25 mM Histidine 10% sucrose pH 7 and administered i.v. at a single dose at day 0. The treatment and observation were conducted up to 7 days and MTD was defined by ≥20% body weight loss. Body weights were measured daily, death and observed clinical signs were recorded.
Doses of 3, 5, and 10 mg/kg were administered. MTD was defined by ≥20% body weight loss and body weight measured daily.

SORT1 = molecular target: T1, SORT1 (Homo sapiens, UniProt Q99523); assay: Competition binding in FP; details: FP competition binding assays, PDC vs parent peptide
T1 construct: Human SORT1 (78-755)-His (Acrobiosystems); His (C); purchased Acrobiosystems SON—H52H5
T1 sequence (Q99523 78-755): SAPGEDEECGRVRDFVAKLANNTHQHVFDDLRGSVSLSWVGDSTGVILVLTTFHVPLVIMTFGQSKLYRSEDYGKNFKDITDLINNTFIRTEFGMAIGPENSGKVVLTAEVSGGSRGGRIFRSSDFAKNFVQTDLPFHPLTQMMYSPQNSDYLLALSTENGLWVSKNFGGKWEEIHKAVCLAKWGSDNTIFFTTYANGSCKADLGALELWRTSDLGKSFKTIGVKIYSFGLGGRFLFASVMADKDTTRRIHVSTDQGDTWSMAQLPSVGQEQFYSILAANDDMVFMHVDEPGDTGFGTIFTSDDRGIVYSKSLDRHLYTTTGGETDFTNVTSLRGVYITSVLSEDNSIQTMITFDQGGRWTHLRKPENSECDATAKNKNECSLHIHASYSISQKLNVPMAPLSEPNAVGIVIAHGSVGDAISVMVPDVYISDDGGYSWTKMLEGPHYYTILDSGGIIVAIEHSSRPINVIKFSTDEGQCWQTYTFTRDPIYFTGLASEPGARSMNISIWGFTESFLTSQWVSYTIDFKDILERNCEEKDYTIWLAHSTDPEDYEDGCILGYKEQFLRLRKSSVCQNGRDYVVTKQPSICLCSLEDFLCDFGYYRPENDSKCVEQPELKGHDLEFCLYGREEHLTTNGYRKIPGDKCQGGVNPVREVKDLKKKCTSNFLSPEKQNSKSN
Experimental: Competition binding studies were conducted in a similar manner to the direct binding protocol. Unlabeled peptides were prepared with a 12-point, two-fold dilution series in a V-bottom 96-well plate for a total volume of 25 μL with a starting concentration of 50 μM. A 10× working stock of the FAM labeled peptide was prepared as described for the Direct binding experiment.
An aliquot of 20 μL of the 500 nM working solution was then added to 2.5 μL of the FAM-peptide, after which 2.5 μL of the unlabeled peptide dilution series was added and mixed by pipetting in a V-bottom 96-well plate. Samples were allowed to incubate for 15 minutes, then 10 μL of the mixture was transferred to an opaque black 384-well non-binding FP plate (Corning® Low Volume 384-well Black Flat Bottom Polystyrene NBS Microplate, #3820) in technical duplicates. The 384-well plate was then centrifuged 1 min, 4000 rpm and fluorescence and polarization of dye measured on a Biotek Synergy Neo2 plate reader using the same settings as for the Direct Binding experiment. Data were then fitted to a One site—Fit logIC50 curve in GraphPad to calculate the IC50.

MDA-MB-231 tumor cells = assay: MDA-MB-231 murine xenograft efficacy model; format: in vivo, BALB/c Nude mice
Experimental: Murine xenograft experiments were conducted at WuXi AppTec and/or Charles River Laboratories and the care and use of animals was conducted in accordance with the regulations of the Association for Assessment and Accreditation of Laboratory Animal Care (AAALAC). MDA-MB-231 tumor cells (ATCC, Manassas, VA, cat #HTB-26) were grown and maintained in L15 medium supplemented with 10% heat inactivated fetal bovine serum, 1% Antibiotic-Antimycotic, and L-glutamine (2 mM) at 37° C. in an atmosphere in 5% CO2, 95% air. BALB/c Nude, female, 6-8 weeks, weighing approximately 18-22 g were purchased from Vital River Laboratory Animal Technology Co., LTD. Mice were inoculated subcutaneously at the right flank with MDA-MB-231 tumor cells (e.g., triple negative breast cancer cells) (10×10^6) in 0.2 mL of PBS with Matrigel (1:1) for tumor development. Animals were randomized and treatment was started when the average tumor volume reached approximately 150-200 mm^3 for the efficacy study. Dosing volume was adjusted based on body weight and was administered at 10 ml/Kg. […] Free MMAE payload was also tested, and similarly dissolved in 25 mM Histidine 10% sucrose pH 7 and one or more of the following doses, 0.6, 0.06 mg/kg, were administered to the mice i.v. at a QW×4 schedule. Tumor sizes were measured twice weekly in two dimensions using a caliper, and the volume in mm^3 calculated using the formula: V=0.5 a×b^2, where a and b are the long and short diameters of the tumor, respectively. TGI was calculated for each group using the formula: TGI (%)=[1−(Ti−T0)/(Vi−V0)]×100; where Ti is the average tumor volume of a treatment group on a given day, T0 is the average tumor volume of the treatment group on the first day of treatment, Vi is the average tumor volume of the vehicle control group on the same day with Ti, and V0 is the average tumor volume of the vehicle group on the first day of treatment.

[2] = Murine plasma stability assay; format: in vitro ADME; details: mouse, 37° C., read-out: Murine plasma stability assay, T1/2
Experimental: Frozen plasma was thawed at 37° C. and centrifuged at 4000 rpm to remove any clots and transferred to 96-well reaction plates by WuXi AppTec. Test compounds were added to the reaction plate at a final concentration of 2 μM and either stopped immediately or incubated at 37° C. for 5 minutes, 10 minutes, 30 minutes, 60 minutes, or 120 minutes. At the end of incubation, stop solution consisting of 200 ng/mL tolbutamide and 200 ng/mL labetalol in ACN was added to precipitate protein and mixed thoroughly. Samples were then transferred to a bioanalysis plate and shaken for 10 minutes prior to HPLC-MS/MS analysis of percent remaining compound.

**Q.** For CC[C@H](C)[C@@H]([C@@H](CC(=O)N1CCC[C@H]1[C@H](OC)[C@@H](C)C(=O)N[C@H](C)[C@@H](O)c1ccccc1)OC)N(C)C(=O)[C@@H](NC(=O)[C@H](C(C)C)N(C)C(=O)OCc1ccc(NC(=O)[C@H](CCCNC(N)=O)NC(=O)[C@@H](NC(=O)CCCC(=O)NCCC(=O)N(C)CC(=O)N(C)CC(=O)N(C)CC(=O)N(C)CC(=O)N[C@@H](C)C(=O)N2CCC[C@H]2C(=O)N[C@@H](CCCNC(=N)N)C(=O)N[C@@H](Cc2c[nH]c3ccccc23)C(=O)N[C@@H](CC(=O)O)C(=O)N[C@@H](C)C(=O)N2CCC[C@H]2C(=O)N[C@@H](CC(C)C)C(=O)N[C@@H](CCCNC(=N)N)C(=O)N[C@@H](CC(=O)O)C(=O)N2CCC[C@H]2C(=O)N[C@@H](C)C(=O)N[C@@H](CC(C)C)C(=O)N[C@@H](CCCNC(=N)N)C(=O)N[C@@H](CCC(N)=O)C(=O)N[C@@H](CC(C)C)C(=O)N[C@@H](CC(C)C)C(=O)O)C(C)C)cc1)C(C)C [PRGN_WT_PDC], which body weight loss ([1]; 5 mg/kg single i.v. dose, recovered at Day 7) is on record?
**A.** ~15%

**Q.** What about the “toxicity” value ([1]; 10 mg/kg single i.v. dose) of the same compound?
**A.** significant toxicity

**Q.** And the body weight loss ([1]; 10 mg/kg single i.v. dose)?
**A.** greater than 20%

**Q.** And the “increase in affinity relative to parent homing peptide” value (SORT1)?
**A.** ~2.5 ×

**Q.** What about the “tumor growth inhibited relative to vehicle” value (MDA-MB-231 tumor cells; 3 mg/kg i.v. QW×4, day 22 (Example 8)) of the same compound?
**A.** 96%

**Q.** And the “tumor growth inhibition” value (MDA-MB-231 tumor cells; 3, 1, 0.3 mg/kg i.v. QW x 4)?
**A.** dose-dependent tumor growth inhibition

**Q.** And the body weight variation (MDA-MB-231 tumor cells; Example 6, PDC 3, 1, 0.3 mg/kg, free MMAE at equivalency to 3 mg/kg PDC)?
**A.** mirrored that observed with vehicle treatment

**Q.** What about the body weight loss (MDA-MB-231 tumor cells; Example 8, PDC 3 mg/kg, free MMAE 0.6 mg/kg, i.v. QW×4) of the same compound?
**A.** body weight loss tracked each other

**Q.** And the half-life at 2 μM [2]?
**A.** 17.1 min
